How the values were obtained:
A549 = assay: Flow cytometry binding on A549 lung adenocarcinoma; type: cell-based; conditions: A549 parental, heterogeneous binding
Method: (§1) Cells were harvested as single cell suspensions using trypsin. 1E5 cells were used per sample, and incubated with 100 μl of mAb culture supernatant for 30 min. Cells were then washed with 1% bovine serum albumin in PBS, and further incubated with 100 μl of goat anti-mouse antibody fluorescein isothiocyanate (FITC)-conjugated (1:500, DAKO, Denmark) for 15 min at 4° C. in the dark. Cells were again washed and resuspended in 200 μL of 1% BSA/PBS for analysis on Guava® easy Cyte 8HT Benchtop Flow Cytometer (Merck Millipore, USA). For interrogation of […] binding, cells were fixed with 4% PFA/PBS (Affymetrix, USA) at room temperature for 10 min, washed in PBS, and permeabilised with 0.1% triton/PBS for 5 min at room temperature, before proceeding with incubation with mAb supernatant/primary antibody. For staining with propidium iodide, PI was added to a final concentration of 5 μg/mL for 5 min just prior to analysis by the flow cytometer.

PC-9 = assay: Mab-ZAP indirect saporin conjugate cell growth inhibition; type: cell-based; conditions: GR6A04 indirectly conjugated with saporin via anti-mouse antibody; PC-9 sensitive parental line
Method: (§2) Cells were seeded into a black coated 96 well plate (Grenier Bio-one, UK) at a range of density from 1000-5000 cells per well (depending on the cell type used) and 90 μL per well. The plate was then incubated for 24 hours at 37° C. in humidified air with 5% CO2. After 24 hours, 10 μL of mAb or buffer was added to each well and the plate was again placed at 37° C. in humidified air with 5% CO2. 4 days after addition of mAb or buffer, 100 μL of CTG substrate (Promega, Wisconsin, USA) was added to each well. The plate was then left in the dark for 10 minutes, with vigorous shaking. The cell viability of the samples was then quantified using Tecan I-control (Tecan, Switzerland).

CL75 GR clone = assay: as above; type: cell-based; conditions: GR6A04 indirectly conjugated with saporin via anti-mouse antibody
Method: as §2

cancer cell lines = assay: IHC staining on FFPE cell line array; type: cell-based; conditions: gastric, lung, colorectal and pancreatic cancer cell lines
Method: TMA slides containing FFPE tissues were first heated in an oven at 60° C. for 30 min to remove any solvents. The slides were then dewaxed and re-hydrated through sequential immersion in Histoclear (2×), 100% ethanol (2×), 95% ethanol, 70% ethanol, and finally in DI water.
Heat-induced epitope retrieval was done in a solution containing 10 mM Tris Base, 1 mM EDTA, 0.05% Tween 20 at pH 9.0, and heated at 95° C. for 20 min. The container with the antigen retrieval solution and slides was then removed and allowed to cool to room temperature for an additional 20 min. The slides were then washed in DI water. Endogenous peroxidase activity was then blocked by incubation of the slides with 3% H2O2 in PBS for 30 min at room temperature. The slides were washed in DI water, followed by a blocking step with 10% normal goat serum in PBS for 30 min.
The slides were then incubated with GR6A04 at 5 μg/mL in blocking solution overnight at 4° C. The slides were then washed an incubated with a polymer-based anti-mouse secondary antibody conjugated with HRP (DAKO, USA) for 30 min at room temperature, and developed with the recommended DAB chromogen substrate solution for 2 min, and counterstained with Gill's Hematoxylin solution. […]

[1] = tested on: PC-9 Gefitinib resistant clones; assay: Propidium iodide staining (FL-3) for cytotoxicity of mAb alone; type: cell-based; conditions: cells incubated with the mAb alone
Method: as §1

A549−GR6A04+ cells = assay: Subcutaneous xenograft model; type: in vivo, NCr Nude mice; conditions: 10 mg/kg, 3 doses on D0, D4 and D8, start at tumour size >150 mm3
Method: Xenograft models were established using A549−GR6A04+ cells in NCr Nude mice. 5E6 cells in DMEM basal media were mixed at a 1:1 ratio with Matrigel, and injected subcutaneously at a volume of 200 μl. Tumours were allowed to form and reach a size of >150 mm^3, before they were randomised into 5 groups of 5 mice each. The groups were treated with mAbs as follows: (1) Buffer control; (2) GR6A04-MMAE; (3) Hu-GR6A04; (4) GR6A04; (5) MG1.45-MMAE isotype control. mAbs were injected via tail vein injection at a total volume of 100 μl. Each dose, were applicable, is at 200 μg (equivalent to 10 mg/kg), and treatment was done every 4 days, for a total of 3 doses (Day 0, 4 and 8). Tumour size was monitored over 50 days.

[2] = tested on: NSCLC lines, GR HCC827 clones, breast cancer lines, colorectal cancer lines; assay: Flow cytometry binding on other cancer cell lines; type: cell-based
Method: as §1

CEACAM6 = molecular target: T1, CEACAM6 (Homo sapiens, UniProt P40199); assay: Binding after siRNA knock down of CEACAM6; type: cell-based; conditions: PC-9 cells; Western blot and flow cytometry
T1 construct: 20 μg of PC-9 membrane protein extract was first denatured; endogenous in cells; host or cells: PC-9 cells
T1 sequence (P40199 35-320): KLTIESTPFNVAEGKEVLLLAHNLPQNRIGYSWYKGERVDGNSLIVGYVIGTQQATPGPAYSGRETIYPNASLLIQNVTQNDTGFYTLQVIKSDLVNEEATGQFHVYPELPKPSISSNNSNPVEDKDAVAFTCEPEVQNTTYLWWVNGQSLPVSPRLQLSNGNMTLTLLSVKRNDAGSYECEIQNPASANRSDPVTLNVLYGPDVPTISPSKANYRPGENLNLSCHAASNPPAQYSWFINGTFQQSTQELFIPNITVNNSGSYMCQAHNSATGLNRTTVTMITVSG

B1: GR6A04: mouse IgG1, κ anti-CEACAM6 monoclonal antibody, VH SEQ ID NO:1, VL SEQ ID NO:2, binds N-glycosylated CEACAM6 (antibody, V domains shown)
VH: SGPELVKPGASVKMSCKASGNTFTSYVMHWVKQKPGQGLEWIGYINPYNDGTKYNEKFKGKATLTSDKSSSTAYMELSSLTSEDSAVYYCARSTARATPYFYAMDYWGQGTSVTVSS
VL: DILMTQSPSSLAVTAGEKVTMRCKSSQSLLWSVNQNSYLSWYQLKQGQPPKLLLYGASIRESWVPDRFTGSGSGTDFTLTISNVHVEDLAVYYCQHNHGSFLPYTFGGGTKLEIK
modifications: Isolated antibody fragment
GR6A04+ population (positive binding tail) (A549): 15-30% | cell growth inhibited (PC-9): 43% | cell growth inhibited (CL75 GR clone): 28% | IHC reactivity on FFPE cell line array (cancer cell lines): reactive | cell cytotoxicity (propidium iodide staining, FL-3) [1]: no apparent cell cytotoxicity | cell cytotoxicity (propidium iodide staining, FL-3) ([1]; listed as GR 6A04): no inherent cytotoxity | tumour growth versus buffer control (A549−GR6A04+ cells): slower growth compared to the buffer control | tumour growth versus buffer control (A549−GR6A04+ cells; listed as Gr6A04): repression of tumour growth | GR HCC827 clones with binding [2]: 2 of 6 | breast cancer lines with reactivity [2]: 3 of 13 | colorectal cancer lines with reactivity [2]: 1 of 2 | NSCLC lines with partial binding ([2]; A549 and Calu-3 positive): 2 of 4 | binding after knockdown of CEACAM6 expression (CEACAM6): decrease

From US12227570B2, “Anti-CEACAM6 antibodies and methods of use” (Singapore Health Services PTE LTD, priority 2016, dated 2025)
